Assay results published in PMC9352680, “A comprehensive thermodynamic model for RNA binding by the Saccharomyces cerevisiae Pumilio protein PUF4”.

B1: Id_ii_S3_P4E.3_K4.2_C4.2_[C-2G]_[T-1A]_H4.2_A4.1_F4.1_T4.2_[G10A] (ssRNA)
RNA: ACAAACGAUAUAUAUUAAUACAAAC
B2: Id_ii_S3_P4E.3_K4.2_C4.2_[C-2G]_H4.2_A4.1_F4.1_T4.2_[G10C] (ssRNA)
RNA: ACAAACGUUAUAUAUUACUACAAAC
B3: Id_ii_S3_P4E.3_K4.2_C4.2_[C-2G]_H4.2_A4.1_F4.1_T4.2_[G10T]_[T11C] (ssRNA)
RNA: ACAAACGUUAUAUAUUAUCACAAAC
B4: Id_ii_S3_P4E.3_K4.2_C4.2_[C-2G]_H4.2_A4.1_F4.1_T4.2_[G10T] (ssRNA)
RNA: ACAAACGUUAUAUAUUAUUACAAAC
B5: Id_ii_S3_P4E.3_K4.2_C4.2_[C-2T]_[T-1C]_H4.2_A4.1_F4.1_T4.2_[G10T]_[T11G] (ssRNA)
RNA: ACAAACUCUAUAUAUUAUGACAAAC
B6: Id_ii_S3_P4E.3_K4.2_C4.2_[C-2T]_[T-1C]_H4.2_A4.1_F4.1_T4.2_[G10T]_[T11C] (ssRNA)
RNA: ACAAACUCUAUAUAUUAUCACAAAC
B7: Id_ii_S3_P4E.3_K4.2_C4.2_[C-2T]_[T-1C]_H4.2_A4.1_F4.1_T4.2_[G10T]_[T11A] (ssRNA)
RNA: ACAAACUCUAUAUAUUAUAACAAAC
B8: Id_ii_S3_P4E.3_K4.2_C4.2_[C-2T]_[T-1A]_H4.2_A4.1_F4.1_T4.2_[G10C]_[T11G] (ssRNA)
RNA: ACAAACUAUAUAUAUUACGACAAAC
B9: Ib_S1_P5E.1_K5.1_C5.1_H5.1_A5.1_[T6G]_F5.1_[A10T]_T5.1 (ssRNA)
RNA: UCUCUUUGUAUGAUUUUCUCUU
B10: Id_ii_S3_P4E.3_K4.2_C4.2_[C-2T]_[T-1A]_H4.2_A4.1_F4.1_T4.2_[G10A]_[T11C] (ssRNA)
RNA: ACAAACUAUAUAUAUUAACACAAAC
B11: Id_ii_S3_P4E.3_K4.2_C4.2_[C-2T]_H4.2_A4.1_F4.1_T4.2_[G10C]_[T11G] (ssRNA)
RNA: ACAAACUUUAUAUAUUACGACAAAC
B12: Id_ii_S3_P4E.3_K4.2_C4.2_[C-2T]_H4.2_A4.1_F4.1_T4.2_[G10T]_[T11C] (ssRNA)
RNA: ACAAACUUUAUAUAUUAUCACAAAC
B13: Id_ii_S3_P4E.3_K4.2_C4.2_[C-2T]_H4.2_A4.1_F4.1_T4.2_[G10T]_[T11A] (ssRNA)
RNA: ACAAACUUUAUAUAUUAUAACAAAC
B14: Id_ii_S3_P4E.3_K4.2_C4.2_[C-2T]_H4.2_A4.1_F4.1_T4.2_[G10A]_[T11C] (ssRNA)
RNA: ACAAACUUUAUAUAUUAACACAAAC
B15: Id_ii_S3_P4E.3_K4.2_C4.2_[C-2A]_[T-1G]_H4.2_A4.1_F4.1_T4.2_[G10T]_[T11C] (ssRNA)
RNA: ACAAACAGUAUAUAUUAUCACAAAC
B16: Id_ii_S3_P4E.3_K4.2_C4.2_[C-2A]_[T-1G]_H4.2_A4.1_F4.1_T4.2_[G10A]_[T11C] (ssRNA)
RNA: ACAAACAGUAUAUAUUAACACAAAC
B17: Id_ii_S3_P4E.3_K4.2_C4.2_[C-2A]_[T-1G]_H4.2_A4.1_F4.1_T4.2_[T11G] (ssRNA)
RNA: ACAAACAGUAUAUAUUAGGACAAAC
B18: Id_ii_S3_P4E.3_K4.2_C4.2_[C-2A]_[T-1G]_H4.2_A4.1_F4.1_T4.2_[T11A] (ssRNA)
RNA: ACAAACAGUAUAUAUUAGAACAAAC
B19: Id_ii_S3_P4E.3_K4.2_C4.2_[C-2A]_[T-1C]_H4.2_A4.1_F4.1_T4.2_[G10C]_[T11C] (ssRNA)
RNA: ACAAACACUAUAUAUUACCACAAAC
B20: Ib_S1_P5E.1_K5.1_C5.1_H5.1_A5.1_[T6C]_F5.1_[A10T]_T5.1 (ssRNA)
RNA: UCUCUUUGUAUCAUUUUCUCUU
B21: Id_ii_S3_P4E.3_K4.2_C4.2_[C-2A]_[T-1C]_H4.2_A4.1_F4.1_T4.2_[G10C] (ssRNA)
RNA: ACAAACACUAUAUAUUACUACAAAC
B22: Id_ii_S3_P4E.3_K4.2_C4.2_[C-2A]_[T-1C]_H4.2_A4.1_F4.1_T4.2_[G10T]_[T11G] (ssRNA)
RNA: ACAAACACUAUAUAUUAUGACAAAC
B23: Id_ii_S3_P4E.3_K4.2_C4.2_[C-2A]_[T-1C]_H4.2_A4.1_F4.1_T4.2_[G10T]_[T11C] (ssRNA)
RNA: ACAAACACUAUAUAUUAUCACAAAC
B24: Id_ii_S3_P4E.3_K4.2_C4.2_[C-2A]_[T-1C]_H4.2_A4.1_F4.1_T4.2_[G10T]_[T11A] (ssRNA)
RNA: ACAAACACUAUAUAUUAUAACAAAC
B25: Id_ii_S3_P4E.3_K4.2_C4.2_[C-2A]_[T-1C]_H4.2_A4.1_F4.1_T4.2_[G10A]_[T11C] (ssRNA)
RNA: ACAAACACUAUAUAUUAACACAAAC
B26: Id_ii_S3_P4E.3_K4.2_C4.2_[C-2A]_[T-1C]_H4.2_A4.1_F4.1_T4.2_[G10A]_[T11A] (ssRNA)
RNA: ACAAACACUAUAUAUUAAAACAAAC
B27: Id_ii_S3_P4E.3_K4.2_C4.2_[C-2A]_[T-1A]_H4.2_A4.1_F4.1_T4.2_[G10C]_[T11G] (ssRNA)
RNA: ACAAACAAUAUAUAUUACGACAAAC
B28: Id_ii_S3_P4E.3_K4.2_C4.2_[C-2A]_[T-1A]_H4.2_A4.1_F4.1_T4.2_[G10C] (ssRNA)
RNA: ACAAACAAUAUAUAUUACUACAAAC
B29: Id_ii_S3_P4E.3_K4.2_C4.2_[C-2A]_[T-1A]_H4.2_A4.1_F4.1_T4.2_[G10T]_[T11C] (ssRNA)
RNA: ACAAACAAUAUAUAUUAUCACAAAC
B30: Id_ii_S3_P4E.3_K4.2_C4.2_[C-2A]_[T-1A]_H4.2_A4.1_F4.1_T4.2_[G10A]_[T11A] (ssRNA)
RNA: ACAAACAAUAUAUAUUAAAACAAAC
B31: Ie_S1_P4E.1_K4.1_C4.1_H4.1_[+4C]_A4.1_F4.1_T4.1 (ssRNA)
RNA: UCUCUUUGUACUAUUAUCUCUU

Biological target: T1, PUF4 RNA-binding domain (Saccharomyces cerevisiae, UniProt P25339 537-888)
T1 sequence: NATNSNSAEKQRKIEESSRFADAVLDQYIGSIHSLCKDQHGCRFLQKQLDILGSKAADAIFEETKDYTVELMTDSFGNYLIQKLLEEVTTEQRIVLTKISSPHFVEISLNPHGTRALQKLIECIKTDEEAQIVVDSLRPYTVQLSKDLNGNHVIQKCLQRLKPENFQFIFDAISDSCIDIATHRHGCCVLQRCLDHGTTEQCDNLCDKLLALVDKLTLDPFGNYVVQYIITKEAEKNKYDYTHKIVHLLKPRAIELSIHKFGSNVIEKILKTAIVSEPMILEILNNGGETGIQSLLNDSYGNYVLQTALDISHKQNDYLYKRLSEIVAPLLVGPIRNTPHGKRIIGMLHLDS
Assay: Mg; RNA-MaP; 20 mM Na-HEPES pH 7.4, 30 mM KOAc, 0.75 mM MgCl2, 0.1% Tween-20, 5% glycerol, 0.1 mg/mL BSA, 2 mM DTT; 25 C; 0.0125-409.6 nM protein
Conditions: tags: N-His6-TEV cleaved; C-SNAP kept, Cy3B-labelled; label: tethered on chip by stalled RNA polymerase

Row | Binder | Kd [nM]
1 | B1 | 40.7
2 | B2 | 58
3 | B3 | 42.4
4 | B4 | 31.6
5 | B5 | 14.5
6 | B6 | 16.3
7 | B7 | 15.5
8 | B8 | 27.8
9 | B9 | 39.5
10 | B10 | 32.9
11 | B11 | 19.4
12 | B12 | 16.5
13 | B13 | 18.1
14 | B14 | 29.5
15 | B15 | 25.5
16 | B16 | 38.8

Row | Binder | Kd [nM]
17 | B17 | 20.3
18 | B18 | 11.3
19 | B19 | 33.5
20 | B20 | 7.85
21 | B21 | 17.6
22 | B22 | 16.6
23 | B23 | 17.7
24 | B24 | 20.5
25 | B25 | 29.6
26 | B26 | 34
27 | B27 | 43.6
28 | B28 | 28.2
29 | B29 | 70.9
30 | B30 | 108
31 | B31 | 4.49
